Laboratory results reported in the RNAGym collection of RNA variant scans (doi:10.7554/elife.80360).

B1: CPEB3 Ribozyme (parent)
chain: GGGGGCCACAGCAGAAGCGUUCACGUCGCGGCCCCUGUCAGAUUCUGGUGAAUCUGCGAAUUCUGCUGU

Variants of: B1
Experiment: self-cleavage, relative activity (ratio to wild type); higher = more cleavage; co-transcriptional

Variant	self-cleavage
GGGCGCCACAGCAGAAGCGUUCACGUCGCGGCCCCUGUCAGAUUCUUGUGAAUCUGCGAAUUCUGCUGU [G4C G47U]	0.638
GGGCGCCACAGCAGAAGCGUUCACGUCGCGGCCCCUGUCAGAUUCUAGUGAAUCUGCGAAUUCUGCUGU [G4C G47A]	0.674
GGGUGCCACAGCAGAAGCGUUCGCGUCGCGGCCCCUGUCAGAUUCUGGUGAAUCUGCGAAUUCUGCUGU [G4U A23G]	0.502
GGGCGCCACAGCAGAAGCGUUCACGUCGCGGCCCCUGUCAGAUUCUGGUGAAUCUACGAAUUCUGCUGU [G4C G56A]	0.289
GGGCGCCACAGCAGAAGCGUUCACGUCGCGGCCCCUGUCAGAUUCUGGUGAAUCUCCGAAUUCUGCUGU [G4C G56C]	0.246
GGGCGCCACAGCAGAAGCGUUCACGUCGCGGCCCCUGGCAGAUUCUGGUGAAUCUGCGAAUUCUGCUGU [G4C U38G]	0.152
GGGCGCCACAGCAGAAGCGUUCACGUCGCGGCCCCUGACAGAUUCUGGUGAAUCUGCGAAUUCUGCUGU [G4C U38A]	0.639
GGGCGCCACAGCAGAAGCGUUCACGUCGCGGCCCCUGUCAGAUUCUGGUGAAUCUGCGAAUGCUGCUGU [G4C U62G]	0.311
GGGCGCCACAGCAGAAGCGUUCACGUCGCGGCCCCUGUCAGAUUCUGGUGAAUCUGCGAAUCCUGCUGU [G4C U62C]	0.213
GGGCGCCACAGCAGAAGCGUUCACGUCGCGGCCCCUGUCAGAUUCUGGUGAAUCUGCGAAUUCUGCGGU [G4C U67G]	0.848
GGGCGCCACAGCAGAAGCGUUCACGUCGCGGCCCCUGUCAGAUUCUGGUGAAUCUGCGAAUUCUGCCGU [G4C U67C]	0.824
GGGCGCCACAGCAGAAGCGUUCACGUCGCGGCCCCUGUCAGAUUCUGGUGAAUCUGCGAAUUCUGCAGU [G4C U67A]	0.902
GGGUGCCACAGCAGAAGCGUUCACGUCGCGGCCCCUGUCUGAUUCUGGUGAAUCUGCGAAUUCUGCUGU [G4U A40U]	0.313
GGGUGCCACAGCAGAAGCGUUCACGUCGCGGCCCCUGUCGGAUUCUGGUGAAUCUGCGAAUUCUGCUGU [G4U A40G]	0.542
GGGCGCCACAGCAGAAGCGUUCACGUCGCUGCCCCUGUCAGAUUCUGGUGAAUCUGCGAAUUCUGCUGU [G4C G30U]	0.0789
GGGCGCCACAGCAGAAGCGUUCACGUCGCAGCCCCUGUCAGAUUCUGGUGAAUCUGCGAAUUCUGCUGU [G4C G30A]	0.0414
GGGCGCCACAGCAGAAGCGUUCACGUCGCGGCCCCUGUCAGAUUCUGGUGAAUCUGCGAAUUCUUCUGU [G4C G65U]	0.294
GGGCGCCACAGCAGAAGCGUUCACGUCGCGGCCCCUGUCAGAUUCUGGUGAAUCUGCGAAUUCUCCUGU [G4C G65C]	0.242
GGGCGCCACAGCAGAAGCGUUCACGUCGCGGCCCCUGUCAGAUUCUGGUGAAUCUGCGAAUUCUACUGU [G4C G65A]	0.412
GGGUGCCACAGCUGAAGCGUUCACGUCGCGGCCCCUGUCAGAUUCUGGUGAAUCUGCGAAUUCUGCUGU [G4U A13U]	0.383

Variant	self-cleavage
GGGUGCCACAGCCGAAGCGUUCACGUCGCGGCCCCUGUCAGAUUCUGGUGAAUCUGCGAAUUCUGCUGU [G4U A13C]	0.336
GGGCGCCACAGCAGAAGCGUUCACGUCACGGCCCCUGUCAGAUUCUGGUGAAUCUGCGAAUUCUGCUGU [G4C G28A]	0.0907
GGGCGCCACAGCAGAAGCGUUCACGUCCCGGCCCCUGUCAGAUUCUGGUGAAUCUGCGAAUUCUGCUGU [G4C G28C]	0.0443
GGGCGCCACAGCAGAAGCGUUCACGUCUCGGCCCCUGUCAGAUUCUGGUGAAUCUGCGAAUUCUGCUGU [G4C G28U]	0.109
GGGUGCCACAGCAGAUGCGUUCACGUCGCGGCCCCUGUCAGAUUCUGGUGAAUCUGCGAAUUCUGCUGU [G4U A16U]	0.235
GGGUGCCACAGCAGUAGCGUUCACGUCGCGGCCCCUGUCAGAUUCUGGUGAAUCUGCGAAUUCUGCUGU [G4U A15U]	0.272
GGGCGCCACAGCAGAAGCGUUCACGUCGCGGCCCCUGUCAGAAUCUGGUGAAUCUGCGAAUUCUGCUGU [G4C U43A]	0.251
GGGCGCCACAGCAGAAGCGUUCACGUCGCGGCCCCUGUCAGAUUCUGGUGAAUCCGCGAAUUCUGCUGU [G4C U55C]	0.237
GGGCGCCACAGCAGAAGCGUUCACGUCGCGGCCCCUGUCAGAUUCUGGUGAAUCAGCGAAUUCUGCUGU [G4C U55A]	0.261
GGGCGCCACAGCAGAAGCGUUCACGUCGCGGCCCCUGUCAGAUUCUGGUCAAUCUGCGAAUUCUGCUGU [G4C G50C]	0.621
GGGCGCCACAGCAGAAGCGUUCACGUCGCGGCCCCUGUCAGAUUCUGGUAAAUCUGCGAAUUCUGCUGU [G4C G50A]	0.654
GGGUGCCACAGCAGAAGCGUUCACGUCGCGGCCCCUGUCAGAUUCUGGUGAGUCUGCGAAUUCUGCUGU [G4U A52G]	0.722
GGGUGCCACAGCAGAAGCGUUCACGUCGCGGCCCCUGUCAGAUUCUGGUGAUUCUGCGAAUUCUGCUGU [G4U A52U]	0.677
GGGUGCCACAGCAGAAGCGUUCACGUCGCGGCCCCUGUCAGAUUCUGGUGACUCUGCGAAUUCUGCUGU [G4U A52C]	0.519
GGGCGCCACAGCAGAAGCGUUCACGUCGCGGCCCCUGUCAGAUUCUGGUGAAACUGCGAAUUCUGCUGU [G4C U53A]	0.316
GGGCGCCACAGCAGAAGCGUUCACGUCGCGGCCCCUGUCAGAUUCUGGUGAACCUGCGAAUUCUGCUGU [G4C U53C]	0.239
GGGCGCCACAGCAGAAGCGUUCACGGCGCGGCCCCUGUCAGAUUCUGGUGAAUCUGCGAAUUCUGCUGU [G4C U26G]	0.217
GGGCGCCACAGCAGAAGCGUUCACGACGCGGCCCCUGUCAGAUUCUGGUGAAUCUGCGAAUUCUGCUGU [G4C U26A]	0.125
GGGCGCCACAGCAGAAGCGUUCACGUCGCGCCCCCUGUCAGAUUCUGGUGAAUCUGCGAAUUCUGCUGU [G4C G31C]	0.105
